Measurements reported in patent publication EP4722245A1, “ANTIBODY TARGETING ITGA2, ANTIBODY DRUG CONJUGATE THEREOF, AND USE” (Foreseen Technology (Beijing) Co., Ltd., priority 2023, dated 2024).

T1: ITGA2 protein on the surface of human tumor cells (human, UniProt P17301 30-1181)
T1 sequence (looked up): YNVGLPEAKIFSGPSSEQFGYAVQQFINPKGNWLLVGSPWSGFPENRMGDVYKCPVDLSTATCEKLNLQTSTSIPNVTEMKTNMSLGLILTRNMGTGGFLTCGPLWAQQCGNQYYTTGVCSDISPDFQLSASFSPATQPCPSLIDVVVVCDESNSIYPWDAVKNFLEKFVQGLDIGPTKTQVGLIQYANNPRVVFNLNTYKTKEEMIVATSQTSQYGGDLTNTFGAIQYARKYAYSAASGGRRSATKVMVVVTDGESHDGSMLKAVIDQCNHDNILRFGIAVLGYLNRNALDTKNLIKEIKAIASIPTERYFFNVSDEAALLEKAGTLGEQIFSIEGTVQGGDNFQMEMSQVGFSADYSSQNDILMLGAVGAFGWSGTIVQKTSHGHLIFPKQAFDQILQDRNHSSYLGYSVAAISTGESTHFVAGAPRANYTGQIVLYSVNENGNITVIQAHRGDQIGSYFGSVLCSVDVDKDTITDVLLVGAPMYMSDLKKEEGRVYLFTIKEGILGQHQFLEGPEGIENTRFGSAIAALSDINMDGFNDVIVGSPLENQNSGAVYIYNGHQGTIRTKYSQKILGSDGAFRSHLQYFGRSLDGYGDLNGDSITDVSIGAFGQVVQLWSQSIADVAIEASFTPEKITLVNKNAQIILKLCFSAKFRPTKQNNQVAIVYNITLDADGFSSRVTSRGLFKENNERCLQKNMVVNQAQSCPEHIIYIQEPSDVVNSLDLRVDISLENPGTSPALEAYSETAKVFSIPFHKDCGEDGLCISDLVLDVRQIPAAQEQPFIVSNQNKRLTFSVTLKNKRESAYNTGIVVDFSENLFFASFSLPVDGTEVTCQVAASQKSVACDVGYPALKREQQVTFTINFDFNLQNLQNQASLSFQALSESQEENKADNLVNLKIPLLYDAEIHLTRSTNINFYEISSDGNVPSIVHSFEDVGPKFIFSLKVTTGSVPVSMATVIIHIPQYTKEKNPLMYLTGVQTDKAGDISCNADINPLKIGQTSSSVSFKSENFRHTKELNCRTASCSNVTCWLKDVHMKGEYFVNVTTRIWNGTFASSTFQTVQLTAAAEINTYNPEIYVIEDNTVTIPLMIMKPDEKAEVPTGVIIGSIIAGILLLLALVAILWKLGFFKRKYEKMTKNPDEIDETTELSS

B1: FS002-A103-H4L3-vcMMAE (antibody, human IgG1, kappa, V domains shown)
VH: QVQLVQSGAEVKKPGASVKVSCKASGYTFTDYEMHWVRQAPGQGLEWMGVIDPETGGTTYNQKFQGRVTLTADTSISTAYMELSRLRSDDTAVYYCSRSGYYVSSYESYAMDYWGQGTTVTVSS
VL: EIVMTQSPPTMSMSPGERVTLSCKASENVGTYVSWYQQKPGQAPRLLIYGASTRESGVPARFSGSGSGTDFTLTISSLQPEDFAVYYCQNDYSYPFTFGGGTKLEIKR
modifications: vc-MMAE, attachment residues not stated; vc-MMAE (mc-vc-PAB-MMAE) conjugated after TCEP reduction, DAR 3.5 per antibody; attachment residues not stated
B2: FS002-A153-H5L2-vcMMAE (antibody, human IgG1, kappa, V domains shown)
VH: QVQLVQSGAEVKKPGASVKVSCKASGYTFTDYEMHWVRQAPGQGLEWMGTIDPETGGTTYAQKFQGRVTMTADTSISTAYMELSRLRSDDTAVYYCARSGYYVSSYESYAMDYWGQGTTVTVSS
VL: DIVMTQSPDSLAVSLGERVTMNCKSSQSLLNSGNQKNYLTWYQQKPGQPPKLLIYGASTRESGVPDRFSGSGSGTDFTLTISSLQAEDVAVYYCQNDYSYPFTFGGGTKLEIKR
modifications: vc-MMAE, attachment residues not stated; vc-MMAE (mc-vc-PAB-MMAE) conjugated after TCEP reduction, DAR 3.5 per antibody; attachment residues not stated
B3: FS002-A153-H5L1-vcMMAE (antibody, human IgG1, kappa, V domains shown)
VH: QVQLVQSGAEVKKPGASVKVSCKASGYTFTDYEMHWVRQAPGQGLEWMGTIDPETGGTTYAQKFQGRVTMTADTSISTAYMELSRLRSDDTAVYYCARSGYYVSSYESYAMDYWGQGTTVTVSS
VL: DIVMTQSPDSLAVSLGERVTMSCKSSQSLLNSGNQKNYLTWYQQKPGQPPKLLIYGASTRESGVPDRFTGSGSGTDFTLTISSLQAEDVAVYYCQNDYSYPFTFGGGTKLEIKR
modifications: vc-MMAE, attachment residues not stated; vc-MMAE (mc-vc-PAB-MMAE) conjugated after TCEP reduction, DAR 3.7 per antibody; attachment residues not stated
B4: FS002-A153-H3L3-vcMMAE (antibody, human IgG1, kappa, V domains shown)
VH: QVQLVQSGAEVKKPGASVKLSCKASGYTFTDYEMHWVRQAPGQGLEWIGTIDPETGGTTYNQKFQGRVTLTADTSISTAYMELSRLRSDDTAVYYCSRSGYYVSSYESYAMDYWGQGTTVTVSS
VL: DIVMTQSPDSLAVSLGERATINCKSSQSLLNSGNQKNYLTWYQQKPGQPPKLLIYGASTRESGVPDRFSGSGSGTDFTLTISSLQAEDVAVYYCQNDYSYPFTFGGGTKLEIKR
modifications: vc-MMAE, attachment residues not stated; vc-MMAE (mc-vc-PAB-MMAE) conjugated after TCEP reduction, DAR 3.8 per antibody; attachment residues not stated
B5: FS002-A103-H4L4-vcMMAE (antibody, human IgG1, kappa, V domains shown)
VH: QVQLVQSGAEVKKPGASVKVSCKASGYTFTDYEMHWVRQAPGQGLEWMGVIDPETGGTTYNQKFQGRVTLTADTSISTAYMELSRLRSDDTAVYYCSRSGYYVSSYESYAMDYWGQGTTVTVSS
VL: EIVMTQSPPTLSLSPGERVTLSCRASENVGTYVSWYQQKPGQAPRLLIYGASTRESGIPARFSGSGSGTDFTLTISSLQPEDFAVYYCQNDYSYPFTFGGGTKLEIKR
modifications: vc-MMAE, attachment residues not stated; vc-MMAE (mc-vc-PAB-MMAE) conjugated after TCEP reduction, DAR 3.7 per antibody; attachment residues not stated
B6: FS002-A153-H4L2-vcMMAE (antibody, human IgG1, kappa, V domains shown)
VH: QVQLVQSGAEVKKPGASVKVSCKASGYTFTDYEMHWVRQAPGQGLEWMGTIDPETGGTTYAQKFQGRVTLTADTSISTAYMELSRLRSDDTAVYYCSRSGYYVSSYESYAMDYWGQGTTVTVSS
VL: DIVMTQSPDSLAVSLGERVTMNCKSSQSLLNSGNQKNYLTWYQQKPGQPPKLLIYGASTRESGVPDRFSGSGSGTDFTLTISSLQAEDVAVYYCQNDYSYPFTFGGGTKLEIKR
modifications: vc-MMAE, attachment residues not stated; vc-MMAE (mc-vc-PAB-MMAE) conjugated after TCEP reduction, DAR 3.8 per antibody; attachment residues not stated
B7: Vatelizumab-vc-MMAE: Antibody-drug conjugate of the positive control antibody Vatelizumab with vc-MMAE linker-payload (conjugate, chains of the INN, looked up)
VH: QVQLQESGPGLVKPSETLSLTCTVSGFSLTNYGIHWIRQPPGKGLEWLGVIWARGFTNYNSALMSRLTISKDNSKNQVSLKLSSVTAADTAVYYCARANDGVYYAMDYWGQGTLVTVSS
VL: DFVMTQSPAFLSVTPGEKVTITCSAQSSVNYIHWYQQKPDQAPKKLIYDTSKLASGVPSRFSGSGSGTDYTFTISSLEAEDAATYYCQQWTTNPLTFGQGTKVEIK
modifications: vc-MMAE linker-payload

Legend:
[1] = target: ITGA2 protein on the surface of human tumor cells (human) (UniProt P17301); test: cell-based or functional assay
[2] = target: T1, ITGA2 protein on the surface of human …; test: cell-based or functional assay
[3] = tested on: Human epidermal cancer cells A431; test: ADC cancer cell killing assay (Cell-Titer-Glo 2.0); assay type: cell-based; conditions: 5 days at 37°C, 3-fold gradient, 11 points
Method: Human epidermal cancer cells A431 available from Procell Life Science&Technology Co.,Ltd. (Wuhan) were seeded into a 96-well plate at 2500 cells/well. It was then incubated in a 5% CO2 incubator overnight at 37°C. Half of the medium was removed from the cell plate on the next day. A 2x hIgG1-vcMMAE (negative control ADC, provided by ChemPartner), a control antibody and the ADC prepared as the above were prepared with a complete culture medium, and then diluted at a 3-fold gradient with 11 specific concentration points in total. Serial dilutions of the above molecules were added to the appropriate wells, and it was then incubated in a 5% CO2 incubator for 5 days at 37°C. After the incubation, 100 uL of Cell-Titer-Glo 2.0 reagent was added to the 96-well plate. It was then well mixed on a plate shaker for 2 minutes, and finally equilibrated at room temperature for 10 minutes. Readings were taken using a microplate reader. Finally, IC50 was used to compare the biological activity of the ADC against each cell line.

| Molecule | A431 cell killing IC50 [2] [pM] | other results |
| --- | --- | --- |
| Vatelizumab-vc-MMAE (antibody) |  | A431 cell killing IC50 [1]: 54 pM |
| B1 | 70 |  |
| B2 | 28 |  |
| B3 | 82 |  |
| B4 | 88 |  |
| B5 | 52 |  |
| B6 | 57 |  |
| B7 |  | IC50 [3]: 54 pM; IC50 ([3]; listed as Vatelizumab-ve-MMAE): < 100 pM |
